Results taken from the supplement of paper PMC10567573.
± gives the standard deviation.

Assay: protein stability index of a GFP-peptide fusion (GPS, HEK-293T) (PSI 1-6); higher = more stable
Conditions: c terminus: a fixed tail appended
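Note: 24-mer peptide tiles fused after GFP, lentivirally expressed, FACS-sorted into six equal bins by GFP/DsRed ratio, decoded by Illumina sequencing, PSI is the read-weighted mean bin number.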

| Sequence | protein stability index (treatment: DMSO) | protein stability index (treatment: MLN4924 1 uM, 8 h) |
| --- | --- | --- |
| SQGAISEGAQRDRFPGRKQPGVHE [C22orf31] | 5.05 ± 0.095 | 5.1 ± 0.18 |
| KWTRVASMSTRRLGVAVAVLGGFL [KLHL20] | 2.18 ± 0.11 | 2.08 ± 0.13 |
| FGAVVRWAEAECQRQQLPVTFGNK [BTBD1] | 2.57 ± 0.3 | 2.84 ± 0.18 |
| SQQQPLRNQVVSSTNGELNVDDPT [CSNK1G1] | 5.36 ± 0.24 | 5.27 ± 0.2 |
| PGPREALSQLRVLCCEWLRPEKHT [ZNF232] | 2.36 ± 0.21 | 2.15 ± 0.4 |
| RLIRKMFSFKVSRWMGLACFRSLA [CCDC70] | 2.35 ± 0.46 | 2.29 ± 0.45 |
| NSKEDAFSGTDWMLEKMDLKEFDL [ATF4] | 4.6 ± 0.26 | 4.55 ± 0.2 |
| AKQLQAVKRKIRDESLCPQHHEAL [TRIM39] | 3.99 ± 0.2 | 3.97 ± 0.19 |
| QAMFDTLGIPKSTTSDIPHMLNQV [FAM98B] | 3.18 ± 0.23 | 3.23 ± 0.26 |
| GEGRSRGSANDYKDTLGKGSSLSA [KRT71] | 4.65 ± 0.52 | 4.96 ± 0.35 |
| AKGNTALHDCAESGSLEILQLLLG [FEM1A] | 2.41 ± 0.23 | 2.16 ± 0.26 |
| MHSFPPLLLLLFWGVVSHSFPATL [MMP1] | 3.14 ± 0.31 | 3.12 ± 0.25 |
| LYFHHYFPAMLFSSMLTGILWDTL [POMT2] | 2.84 ± 0.34 | 3.21 ± 0.23 |
| GAPSPGSSDVSTAGTGASRSSHSS [ELF3] | 5.33 ± 0.29 | 5.32 ± 0.14 |
| IELNGGQPPLTYKRFQTLISKMEP [CRY1] | 2.53 ± 0.3 | 2.51 ± 0.16 |
| SGSRHPPWARGCGMFTFLSSVTAA [SLC2A12] | 2.48 ± 0.43 | 2.38 ± 0.62 |
| LKVTGKPDAETLKVMKQPRCGVPD [MMP1] | 4.47 ± 0.3 | 4.49 ± 0.15 |

| Sequence | protein stability index (treatment: DMSO) | protein stability index (treatment: MLN4924 1 uM, 8 h) |
| --- | --- | --- |
| SSKEEQKLIATSNKPAVKLLYNRS [KCTD10] | 3.9 ± 0.27 | 4.08 ± 0.48 |
| SALSDTEIQREIGISNALHRLKLR [PPFIA4] | 4.2 ± 0.27 | 4.17 ± 0.25 |
| ACIAYIRITQYLDAGGIPRTAQSE [CAMK2A] | 2.64 ± 0.42 | 2.81 ± 0.39 |
| KLVADFQRYILYWRKRFTEQPITD [ZNF277] | 1.99 ± 0.24 | 2.19 ± 0.44 |
| TELVLSDCMLSEEGATLLLRGLCA [LRRC45] | 2.32 ± 0.3 | 2.32 ± 0.24 |
| CRYPYEYEGGHIKGAVNLHMEEEV [CDC25A] | 3.8 ± 0.34 | 3.7 ± 0.33 |
| QRLIKKVQEAVLDKWVNDPHRMDR [GOLPH3] | 2.34 ± 0.19 | 2.27 ± 0.2 |
| FAGGFVDFGACDGGLLTGNEKITM [KRT13] | 2.73 ± 0.32 | 2.56 ± 0.079 |
| RDAGATPSAAGAPASAPGEPRQRR [ANKRD9] | 5.57 ± 0.27 | 5.59 ± 0.19 |
| WYLKEEDHYQRVKREREKEDIALN [RHOBTB1] | 3.94 ± 0.18 | 3.955 ± 0.027 |
| LTYSTRMSQTVQRMLVAASWACAF [OR3A1] | 3.35 ± 0.71 | 3 ± 0.65 |
| LTVEGFQSWMWRGLTFLLPFLFFG [TMEM120A] | 2.98 ± 0.45 | 2.74 ± 0.035 |
| ETAPTTVDRTHALMKKIGQCPMRV [CRYL1] | 3.59 ± 0.14 | 3.68 ± 0.2 |
| EQHAGTSEGLHLAGTAGHPPSGSQ [FBF1] | 5.19 ± 0.3 | 5.2 ± 0.15 |
| LDEPNAESDYTYSSSYEQFNGELP [SRPK2] | 4.78 ± 0.28 | 4.62 ± 0.19 |
| QVADVPEKPRVPAFACQVAGCCQV [ZNF511] | 3.44 ± 0.16 | 3.61 ± 0.35 |
